Assays:
[1] = target: mouse PDGFR on NIH/3T3 mouse fibroblasts (mouse) (UniProt P05622); assay: flow cytometry on cells, soluble ligand titrated, anti-FLAG-PE
[2] = target: human PDGFR on BJ-5ta human fibroblasts (human) (UniProt P09619); assay: as above
[3] = target: human PDGFR on BJ-5ta human fibroblasts (human) (UniProt P09619); assay: flow cytometry titration of the soluble FLAG-tagged protein on BJ-5ta cells, anti-FLAG detection
[4] = target: mouse PDGFR on NIH/3T3 mouse fibroblasts (mouse) (UniProt P05622); assay: flow cytometry on NIH/3T3 cells, soluble ligand titrated 5 h at 4 C, anti-FLAG-PE
[5] = target: human PDGFR on BJ-5ta human fibroblasts (human) (UniProt P09619); assay: flow cytometry on BJ-5ta cells, soluble ligand titrated 5 h at 4 C, anti-FLAG-PE

scPDGF, single-chain version of wild-type PDGF-BB, soluble, FLAG and hexahistidine tags (ligand), sequence (chain, part): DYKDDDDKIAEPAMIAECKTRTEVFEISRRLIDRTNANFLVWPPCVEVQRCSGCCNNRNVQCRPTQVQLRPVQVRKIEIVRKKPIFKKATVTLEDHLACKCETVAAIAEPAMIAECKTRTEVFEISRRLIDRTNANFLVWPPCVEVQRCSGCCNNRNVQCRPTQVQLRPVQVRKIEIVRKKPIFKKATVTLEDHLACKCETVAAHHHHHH

Kd [1]: 2.5 pM | Kd [2]: 1.5 pM | EC50 (read off the curve) [3]: 1 pM | Kd [4]: 2.7 pM | Kd [5]: 1.5 pM
Substance: scPDGF, single-chain version of wild-type PDGF-BB, soluble, FLAG and hexahistidine tags (ligand)
